Each block holds one binder with its values, some of them ahead of it.
B1: TRAIP CC (66–164 aa) (domain or fragment, human, UniProt Q9BWF2 66-164, looked up)
chain: LAQEEENVLDAEFLKNELDNVRAQLSQKDKEKRDSQVIIDTLRDTLEERNATVVSLQQALGKAEMLCSTLKKQMKYLEQQQDETKQAQEEARRLRSKMK
notes: The abstract prints 64–166 for this construct; Calculated mass with the C-terminal His tag is 12325 Da; also called TRAIP coiled-coil domain; TRAIP-1; source: E. coli BL21 (DE3), purified (Ni-NTA, SEC); not shown: His6, C-terminal, kept

Legend:
[1] = target: the molecule itself; experiment: SEC-MALS; TRAIP CC alone on a size exclusion column HR 10/30, 20 mM Tris-HCl pH 8, 150 mM NaCl; three-angle light scattering and refractive index detectors (Wyatt mini-DAWN TREOS), ASTRA
[2] = target: the molecule itself; experiment: SEC; each protein alone on Superdex 200 HR 10/30, 20 mM Tris-HCl pH 8.0, 150 mM NaCl; oligomeric state from the elution volume
TRAIP CC (66–164 aa) = target: B1; experiment: SEC; purified proteins mixed in a molar ratio of approximately 1:1, pre-incubated 30 min at 4 °C, Superdex 200 HR 10/30, 20 mM Tris-HCl pH 8.0, 150 mM NaCl; fractions on SDS-PAGE; settings: both partners purified

Binder: B1
stoichiometry N [1]: 3

B2: TRAIP RINGCC (1-157aa) (domain or fragment, human, UniProt Q9BWF2 1-157, looked up)
chain: MPIRALCTICSDFFDHSRDVAAIHCGHTFHLQCLIQWFETAPSRTCPQCRIQVGKRTIINKLFFDLAQEEENVLDAEFLKNELDNVRAQLSQKDKEKRDSQVIIDTLRDTLEERNATVVSLQQALGKAEMLCSTLKKQMKYLEQQQDETKQAQEEAR
notes: the methods name pET24a with a C-terminal His6; One sentence of the results prints 1–517; also called TRAIP-5; TRAIP RINGCC (1–517); source: E. coli BL21 (DE3), purified (Ni-NTA, SEC)
binding result [2]: binds

binding result (TRAIP CC (66–164 aa)): binds
B3: RAP80 zinc finger (490–584 aa) (domain or fragment, human, UniProt Q96RL1 490-584, looked up)
chain: KEVAISTFSSSNQVSCPLCDQCFPPTKIERHAMYCNGLMEEDTVLTRRQKEAKTKSDSGTAAQTSLDIDKNEKCYLCKSLVPFREYQCHVDSCLQ
notes: RAP80 (receptor-associated protein 80), human, 719 aa, zinc finger motif, residues 490(K)-584(Q), 95 aa; the methods name pET24a with a C-terminal His6; also called RAP80 Zn finger motif; RAP80-1; source: E. coli BL21 (DE3), purified (Ni-NTA, SEC)
stoichiometry N [2]: 3

From article PMC8626312, “In vitro assembly complex formation of TRAIP CC and RAP 80 zinc finger motif revealed by our study” (Saudi Journal of Biological Sciences, 2021)
